{
  "source": "patent US20220378827A1",
  "about": "(EMORY UNIVERSITY, published 2022)",
  "binders": {"B1": {"name": "CD5-NSCAR (CD5 scFv non-signaling chimeric antigen receptor) (other)", "chain": "GAPEIQLVQSGGGLVKPGGSVRISCAASGYTFTNYGMNWVRQAPGKGLEWMGWINTHTGEPTYADSFKGRFTFSLDDSKNTAYLQINSLRAEDTAVYFCTRRGYDWYFDVWGQGTTVTVSSGGGGSGGGGSGGGGSDIQMTQSPSSLSASVGDRVTITCRASQDINSYLSWFQQKPGKAPKTLIYRANRLESGVPSRFSGSGSGTDYTLTISSLQYEDFGIYYCQQYDESPWTFGGGTKLEIKASEQKLISEEDLDNEKSNGTIIHVKGKHLCPSPLFPGPSKPFWVLVVVGGVLACYSLLVTVAFIIFWVRSEWPGKVR"}},
  "molecular_target": "T1, CD5 antigen on T cells (Jurkat, Molt-4, gamma delta T cells) (UniProt P06127 25-495, limits assumed)",
  "T1 sequence (looked up)": "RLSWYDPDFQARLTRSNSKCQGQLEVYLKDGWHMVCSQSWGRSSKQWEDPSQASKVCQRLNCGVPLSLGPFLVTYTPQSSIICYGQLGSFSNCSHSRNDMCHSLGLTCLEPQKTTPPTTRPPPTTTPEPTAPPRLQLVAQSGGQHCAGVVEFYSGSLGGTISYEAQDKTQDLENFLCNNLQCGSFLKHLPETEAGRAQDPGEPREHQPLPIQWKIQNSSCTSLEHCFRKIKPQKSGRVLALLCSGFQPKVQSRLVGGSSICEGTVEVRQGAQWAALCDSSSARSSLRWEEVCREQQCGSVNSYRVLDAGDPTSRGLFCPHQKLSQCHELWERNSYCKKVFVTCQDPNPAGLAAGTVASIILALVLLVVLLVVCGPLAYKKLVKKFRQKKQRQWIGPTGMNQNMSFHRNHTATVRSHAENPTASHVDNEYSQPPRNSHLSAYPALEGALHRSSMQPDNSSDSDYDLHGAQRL",
  "experiment": "cell-based or functional assay",
  "data": [
    {"binder": "B1", "values": [
      {"measurement": "CD5 expression on non-modified Jurkat T cells in co-culture with CD5-NSCAR-modified Jurkat T cells, 1:1 ratio", "value": "< 20", "unit": "%"}
    ]}
  ]
}
